From patent publication US20230365929A1, “METHOD OF DIFFERENTIATION OF PLURIPOTENT STEM CELLS TO RETINAL PIGMENT EPITHELIUM CELLS” (R.P. SCHERER TECHNOLOGIES, LLC, priority 2022, published 2023) come the findings set out here.

The test system of the assay is Human induced pluripotent stem cells (hiPSCs). As to the kind of experiment: RPE-specific markers expression in hiPSCs differentiated into RPE cells (RTqPCR; FACS). The format is cell-based. How it is done:
Day 0: overall undifferentiated and tight hiPSC morphology was confirmed to be at close to 100% confluency. Otherwise, the cells were fed once more with 4 ml prewarmed iPS Brew medium and instead differentiation was initiate the next day. KSR medium (4 ml needed per 6-well), PD0325901 (PD)/SB431542 (SB)/dorsomorphin (DM) aliquots, as well as Activin A were prepared and/or prewarmed. After thawing and thoroughly mixing all reagents, […] (1:1000 from 1 mM stock), […] (1:2000 from 10 mM stock), […] (1:2000 from 0.5 mM stock) and […] (1:400 from 10 μg/ml stock) were added to 4 ml KSR medium per confluent hiPSC culture well, after vigorously agitating culture plates and completely soaking off iPS Brew medium.
Days 1 and 2: media was prepared as above and old medium replaced on culture wells by 4 ml fresh differentiation medium per well, following vigorous agitation and complete media aspiration.
Day 3: KSR medium with Activin A only was prepared and old medium was replaced on culture wells by 4 ml fresh ActA-only differentiation medium per well, following vigorous agitation and complete media aspiration.
Day 4: fresh KSR+ActA differentiation medium was prepared and feed with 8 ml per well.
Second week: cells were fed daily with 4 ml per 6-well and 8 ml over the weekend.
Third and fourth weeks: no more small molecules were applied during the third and fourth weeks of differentiation. Only Activin A was added to basal media (either KSR or B27 medium) Activin A was added daily to prewarmed basal media, and old medium replaced on cells (1:100 thoroughly mixed).
Day 29 (week 5): newly coated dishes were prepared by coating 12-well (5 μl) or 6-well format (12 μl iM) with 4 x iMatrix-511 in PBS for 1 h at 37° C. KSR medium was prepared and prewarmed for splitting procedure. Differentiated cells were washed with PBS once (4 ml) or twice (2×2 ml), then 1 ml prewarmed TrypLE Se-lec was added. Cells were dissociated using a 1 ml pipette by pipetting up and down several times and results were checked under the microscope. Cell suspension was transferred to 15 ml tube and centrifuged at 300 g for 2 min. A portion of the cells was transferred into a 1.5 ml tube for downstream FACS and/or RT-qPCR analysis. Cells were resuspended in an appropriate amount of KSR medium and cell titer was determined using a Neubauer chamber. 400,000 cells per cm^2 were plated out in 6-well (with 4 ml KSR medium with or without Activin A24) or 12-well format (2 ml medium).
Samples to be analyzed by RT-qPCR were cells directly lysed from culture wells using RA1 buffer from the RNA isolation kit. […] RNA concentration was measured on NanoDrop monitoring A260/280 and A260/230 ratios. […]
For orientation: Real-time PCR tracks product formation cycle by cycle.

B1: Activin A (protein, UniProt P08476 311-426, looked up)
Inhibin beta A chain: GLECDGKVNICCKKQFFVSFKDIGWNDWIIAPSGYHANYCEGECPSHIAGTSGSSLSFHSTVINHYRMRGHSPFANLKSCCVPTKLRPMSMLYYDDGQNIIKKDIQNMIVEECGCS
modifications: homodimer
notes: member of the TGFβ family of proteins; disulfide-linked homodimer (two beta-A chains)
Consider B1, for which, where the note is “Activin A treatment initiated after signaling inhibition (PSD then A) vs standard simultaneous protocol, FIG. 6”, the RPE gene expression entry is reported as “reduced RPE gene expression”. Also, the “induction of RPE cell fate” value (RTqPCR (OTX2, MITF, PMEL), complete withdrawal of the three small molecules, FIG. 5) was “insufficient for inducing RPE cell fate”. Moreover, the “induction of the RPE phenotype” value (RTqPCR of RPE-specific markers, non-treated vs Activin A only vs PSD+A, FIG. 2C) was “not sufficient to induce the RPE phenotype”. Besides, for the setting “titration of Activin A: concentration below 20 ng/ml or complete withdrawal, FIG. 7”, the RPE induction entry is reported as “inferior RPE induction”.
